These results are taken from the supplement of paper PMC9170038.

The test system of this data set is MS2 coat protein. Description: apparent KD of MS2 coat protein; designed switch direction (-1 OFF switch, 1 ON switch): -1; higher = weaker reporter binding. An outline of the steps:
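For each design, the apparent KD is the median over clusters of curves fitted to normalised cluster fluorescence. Clusters held RNA switches with common flanks, transcribed on Illumina chips by stalled E. coli RNA polymerase. These were titrated with SNAP-549-labelled MS2 coat protein, doubling from 0.7 or 1.5 nM to 3 µM, without input, with 200 uM small-molecule ligand, or with an oligonucleotide input.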

Where [1] appears, read: Eterna round: R95, input ligand: microRNA oligo, concentration not stated.
Where [2] appears, read: Eterna round: R95, input ligand: FMN 200 uM.
Setting [3] is: Eterna round: R95, input ligand: none.

On to “GAAUAGUGAGGAUAUGCAAUGAAGGUAGUACGAUAUGUCUGACAUGAGGAUCACCCAUGUAGAAGGCACAGAUC [EX2 #12] (Eterna round: R97, puzzle: Exclusion 2)”, for which the “apparent KD of MS2 coat protein” value by setting is: (input ligand: FMN 200 uM) 16.1 nM; (input ligand: none) 22 nM.

For “GAAUGAGAGCAGGAUAUCUUAUAAAUAUAUGAAAGAGAAGGGCUCACAUGAGGAUCACCCAUGUGGUCCUAGAU [jl-ex6-4.75 jandersonlee mod] (Eterna round: R97, puzzle: Exclusion 6)”, the “apparent KD of MS2 coat protein” value is 443 nM (input ligand: FMN 200 uM) and 42.9 nM (input ligand: none).

“GACACGGAUGUCAGGAUAUGCAAAUGGCAUCGUUCGCAGAAGGGACAUGAGGAUCACCCAUGUAAAAGUGGACC [Onsorelama] (Eterna round: R97, puzzle: Brourd's mod of Exclusion 4)”: the “apparent KD of MS2 coat protein” value (input ligand: FMN 200 uM) worked out at 109 nM and the “apparent KD of MS2 coat protein” value (input ligand: none) turned out to be 114 nM.

Take “GACCCUGCCUAGGAUAUGCAUCUGUCAGUCAGGGCAGAAGGAGGCACAUGAGGAUCACCCAUGUGACCCGGCGU [EX6 C.3] (Eterna round: R97, puzzle: Exclusion 6)”: the “apparent KD of MS2 coat protein” value by setting is: (input ligand: FMN 200 uM) 14.6 nM; (input ligand: none) 14.5 nM.

Take “GACCUAUAGGUAGGAUAUCAUUGCGAUUAGCUAUGAGAAGGACCACAUGAGGAUCACCCAUGUCCUCCAAUUAACCGAAAGGUC [Fiskers ExNg1 - 3] (Eterna round: R96, puzzle: Exclusion NG 1)”: the “apparent KD of MS2 coat protein” value reads like this: (input ligand: FMN 200 uM) 44.9 nM; (input ligand: microRNA oligo, concentration not stated) 21.9 nM; (input ligand: none) 30.1 nM.

Turning to “GACUGCCGAGGAUAUACAUGAGGAUCACCCAUGUGCUUCAGCAUCGAAAGAUGCAUGGGUAGAAGGCGGUAGUC [LRO-Excl3-11] (puzzle: Exclusion 3)”, the “apparent KD of MS2 coat protein” value under setting [1] was found to be 25.4 nM.

For “GACUGGACAGGAUAUGUUCUUGAGCACUUGAGGAUCACCCAAGUCAUCAAGAACUCAGGCACAGAAGGGUUUAUGG [salish99_ex5_r4_010] (Eterna round: R97, puzzle: Exclusion 5)”, the “apparent KD of MS2 coat protein” value runs as follows: (input ligand: FMN 200 uM) 23.3 nM; (input ligand: none) 12.1 nM.

In the case of “GACUGGGCAGGAUAUACAUGAGGAUCACCCAUGUGUCUGCGUCAGGCACGUGUAGACGGUAGAAGGGCCUACAC [ChP 13.04.2015 #16] (puzzle: Exclusion 3)”, the “apparent KD of MS2 coat protein” value under setting [1] was 11.9 nM.

“GACUUCUGAGGAUAUACAUAGAUUUACAUGAGGAUCACCCAUGUUCCUCUAUGUAUAAAUGUAGAAGGCAGAAGAA [Mat - Exclusion 5 - JL Mod - D64] (Eterna round: R97, puzzle: Exclusion 5)”: the “apparent KD of MS2 coat protein” value (input ligand: FMN 200 uM) stood at 66.8 nM and the “apparent KD of MS2 coat protein” value (input ligand: none) came to 15.5 nM.

In the case of “GACUUGUCAGGAUAUCUUACAUAAACAUCGUAGUUACAAUUGGAGAAGGGACAUGAGGAUCACCCAUGUUUGCC [tap-tap-tappy30] (Eterna round: R97, puzzle: Exclusion 4)”, the “apparent KD of MS2 coat protein” value is, setting by setting: (input ligand: FMN 200 uM) 16.8 nM; (input ligand: none) 17.5 nM.

Consider “GACUUGUUAGGAUAUCUUACAUUUGCAUUAUAGCAACUAUUGGAGAAGGGACAUGAGGAUCACCCAUGUUUGGG [tap-tap-tappy17] (Eterna round: R97, puzzle: Exclusion 4)”, for which the “apparent KD of MS2 coat protein” value is, setting by setting: (input ligand: FMN 200 uM) 504 nM; (input ligand: none) 479 nM.

On to “GAGAAACAUGAGGAUCACCCAUGUAAGGAUAUGCUGAAAACAACGGAUAAAACGUGCAGCAGAAGGUACAAAGG [Mat - Mod of my Eli Mod D41] (puzzle: Exclusion 1)”, for which the “apparent KD of MS2 coat protein” value under setting [2] worked out at 76.5 nM, the “apparent KD of MS2 coat protein” value under setting [1] turned out to be 72.1 nM and the “apparent KD of MS2 coat protein” value under setting [3] was 72.4 nM.

Regarding “GAGAAACAUGAGGAUCACCCAUGUCAGGAUAUUCGGAGGAGAGGGAAGAGAGAGAGGAGAAGAAGGGACGAGAG [Exclusion 1 Rhiboswitch & Hairpin Submission (Joejoemyo11)] (puzzle: Exclusion 1)”, the “apparent KD of MS2 coat protein” value is, setting by setting: under setting [2], 38.7 nM; under setting [1], 26 nM; under setting [3], 55.7 nM.
